# Laboratory results from patent publication US20070207519A1 (SANDOZ, published 2007).
# T1: β-subunit of wild-type CPC acylase derived from Pseudomonas sp. SE83 (Pseudomonas sp. SE83, UniProt P15558 240-774)
# T1 construct: About 58 kDa subunit of 535 amino acids; also called AcyII β-subunit; CPC acylase β-subunit
# T1 sequence: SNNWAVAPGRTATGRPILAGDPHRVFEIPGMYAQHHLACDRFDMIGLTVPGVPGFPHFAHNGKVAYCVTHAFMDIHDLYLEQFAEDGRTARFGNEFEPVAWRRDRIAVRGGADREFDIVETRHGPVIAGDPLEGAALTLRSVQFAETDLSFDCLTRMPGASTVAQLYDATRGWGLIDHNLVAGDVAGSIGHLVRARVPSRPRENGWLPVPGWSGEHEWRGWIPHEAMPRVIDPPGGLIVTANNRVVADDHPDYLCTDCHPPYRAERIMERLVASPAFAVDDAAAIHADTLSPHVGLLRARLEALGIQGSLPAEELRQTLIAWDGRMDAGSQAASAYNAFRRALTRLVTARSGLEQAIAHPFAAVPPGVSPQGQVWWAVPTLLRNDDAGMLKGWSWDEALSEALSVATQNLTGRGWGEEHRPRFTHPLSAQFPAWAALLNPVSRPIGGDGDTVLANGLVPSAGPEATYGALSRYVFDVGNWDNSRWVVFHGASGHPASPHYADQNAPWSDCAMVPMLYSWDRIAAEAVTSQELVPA
# Target: T1, β-subunit of wild-type CPC acylase …
# Assay: non-denaturing PAGE and MALDI-TOF of the purified enzyme (single species of about 83 kDa) against denaturing SDS-PAGE (bands of 25 kDa and 58 kDa)
# From the text: Further, the active fraction of wild-type CPC acylase obtained in Example <2-1> was subjected to non-denaturing PAGE and Coomasie blue staining. As a result, a single band was detected at a position corresponding to the molecular weight of about 83 kDa, which means that the wild-type CPC acylase was purely purified (FIGS. 11a to 11c). Together with the result of non-denaturing PAGE, MALDI-TOF mass spectrophotometry analysis confirmed that the molecular weight of purified enzyme (that is, the active CPC acylase) is about 83 kDa. Furthermore, about 25 kDa of band corresponding to α-subunit and about 58 kDa of band corresponding to β-subunit were detected by denaturing SDS-PAGE.
binder,measurement,value
"α-subunit of wild-type CPC acylase derived from Pseudomonas sp. SE83 (enzyme, About 25 kDa subunit of 229 amino acids; also called AcyII α-subunit; CPC acylase α-subunit) TMAAKTDREALQAALPPLSGSLSIPGLSAPVRVQRDGWGIPHIKASGEADAYRALGFVHAQDRLFQMELTRRKALGRAAEWLGAEAAEADILVRRLGMEKVCRRDFEALGAEAKDMLRAYVAGVNAFLASGAPLPIEYGLLGAEPEPWEPWHSIAVMRRLGLLMGSVWFKLWRMLALPVVGAANALKLRYDDGGQDLLCIPPGVEAERLEADLAALRPAVDALLKAMGG",binding result,binds
